One assay has as its target ErbB3 (human, UniProt P21860). Put plainly: ELISA. (ELISA stands for enzyme-linked immunosorbent assay.)
Assay [1] concerns the target T1, DLL4 (human, UniProt Q9NR61). Put plainly: competition.
The target in assay [2] is T1, DLL4. The assay is described as follows: ELISA.
Assay [3] has as its target T2, IGF1 (human, UniProt P05019). Put plainly: ELISA.
Assay [4] has as its target T3, IGF2 (human, UniProt P01344). The assay is described as follows: ELISA.
The target in assay [5] is T3, IGF2. Put plainly: ELISA. The source holds these as a separate data set.
Assay [6] deals with T2, IGF1. Put plainly: ELISA. This is another data set of the same source.
Assay [7] has as its target T3, IGF2. The assay is described as follows: SPR.
In assay [8] the target is T4, HGF (human, UniProt P14210). The assay is described as follows: competition.
Assay [9] deals with T4, HGF. The assay is described as follows: ELISA.
Assay [10] has as its target T4, HGF. The assay is described as follows: SPR. On the technique in general: SPR reads the build-up and loss of mass on a sensor chip optically.
The target in the next assay is T5, VEGF (human, UniProt P15692).
T5 chain: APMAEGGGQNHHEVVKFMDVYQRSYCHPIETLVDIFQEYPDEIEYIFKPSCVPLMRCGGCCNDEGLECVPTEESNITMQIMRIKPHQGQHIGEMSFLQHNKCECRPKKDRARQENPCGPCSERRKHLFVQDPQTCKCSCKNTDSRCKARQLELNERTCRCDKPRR
Put plainly: ELISA.

Assay [11] addresses T6, PlGF (human, UniProt P49763).
T6 chain: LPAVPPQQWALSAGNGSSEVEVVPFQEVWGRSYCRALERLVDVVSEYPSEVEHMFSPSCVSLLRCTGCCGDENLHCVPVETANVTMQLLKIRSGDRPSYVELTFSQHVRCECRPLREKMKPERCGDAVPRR
The assay is described as follows: ELISA.

Assay [12] addresses T6, PlGF. The assay is described as follows: SPR.

Where “and” joins values, the source holds several entries; their conditions need not be identical. Identical values can stand only once. Like-named read-outs stand apart in the source and are kept apart here. Some results are limits rather than exact numbers.

T4 sequence (P14210 32-728): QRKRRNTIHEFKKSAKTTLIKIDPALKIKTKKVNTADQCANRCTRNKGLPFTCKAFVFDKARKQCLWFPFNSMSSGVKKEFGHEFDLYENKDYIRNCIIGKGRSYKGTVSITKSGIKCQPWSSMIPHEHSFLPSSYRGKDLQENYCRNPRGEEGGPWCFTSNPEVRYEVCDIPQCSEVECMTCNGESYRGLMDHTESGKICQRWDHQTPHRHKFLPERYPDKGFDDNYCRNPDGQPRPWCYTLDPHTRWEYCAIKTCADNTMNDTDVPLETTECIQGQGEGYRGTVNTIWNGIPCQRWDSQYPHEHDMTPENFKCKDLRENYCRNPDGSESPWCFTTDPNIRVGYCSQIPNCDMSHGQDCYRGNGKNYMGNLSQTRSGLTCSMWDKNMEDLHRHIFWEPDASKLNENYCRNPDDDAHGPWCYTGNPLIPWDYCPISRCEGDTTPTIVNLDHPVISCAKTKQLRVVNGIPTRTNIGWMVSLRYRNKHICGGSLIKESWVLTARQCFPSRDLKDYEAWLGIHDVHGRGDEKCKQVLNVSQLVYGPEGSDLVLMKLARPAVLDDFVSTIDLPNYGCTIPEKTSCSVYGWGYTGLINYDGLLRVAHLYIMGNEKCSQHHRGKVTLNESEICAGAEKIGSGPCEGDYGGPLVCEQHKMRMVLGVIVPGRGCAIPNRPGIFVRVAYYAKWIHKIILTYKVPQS
T1 sequence (Q9NR61 27-524): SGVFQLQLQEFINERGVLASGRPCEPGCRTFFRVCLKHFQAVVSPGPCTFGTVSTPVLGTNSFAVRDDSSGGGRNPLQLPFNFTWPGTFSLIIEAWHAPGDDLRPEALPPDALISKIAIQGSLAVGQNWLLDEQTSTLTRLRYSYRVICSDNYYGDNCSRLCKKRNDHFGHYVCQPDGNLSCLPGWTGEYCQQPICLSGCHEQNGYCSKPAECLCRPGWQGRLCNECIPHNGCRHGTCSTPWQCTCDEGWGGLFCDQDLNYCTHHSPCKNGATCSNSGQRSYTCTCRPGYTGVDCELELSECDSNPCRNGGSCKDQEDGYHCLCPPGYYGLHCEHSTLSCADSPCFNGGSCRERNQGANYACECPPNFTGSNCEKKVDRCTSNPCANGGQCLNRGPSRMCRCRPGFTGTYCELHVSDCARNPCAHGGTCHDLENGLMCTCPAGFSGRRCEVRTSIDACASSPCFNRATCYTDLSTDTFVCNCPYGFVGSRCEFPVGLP

B1: DVD300 ErbB3 arm (antibody, V domains shown)
VH: QVQLQQWGAGLLKPSETLSLTCAVYGGSFSGYYWSWIRQPPGKGLEWIGEINHSGSTNYNPSLKSRVTISVETSKNQFSLKLSSVTAADTAVYYCARDKWTWYFDLWGRGTLVTVSS
VL: not shown
modifications: DVD-Ig inner
As to B1, the midpoint of the response in the assay with ErbB3, the EC50, lay at 7630 nM.

B2: DVD258 DLL4 arm (antibody)
chain 1: EVQLVESGGGLVQPGGSLRLSCAASGFTFTDNWISWVRQAPGKGLEWVGYISPNSGFTYYADSVKGRFTISADTSKNTAYLQMNSLRAEDTAVYYCARDNFGGYFDYWGQGTLVTVSS
chain 2: DIQMTQSPSSLSASVGDRVTITCRASQDVSTAVAWYQQKPGKAPKLLIYSASFLYSGVPSRFSGSGSGTDFTLTISSLQPEDFATTYYCQQSYTGTVTFGQGTKVEIKR
modifications: DVD-Ig inner
With B2, the IC50 with DLL4 [1] stood at 17.5 nM. Also, in the assay with DLL4 [2], the EC50 stood at 2.3 nM.

B3: DVD041 IGF1,2 arm (antibody, V domains shown)
VH: QVQLVQSGAEVKKPGASVKVSCKASGYTFTSYDINWVRQATGQGLEWMGWMNPNSGNTGYAQKFQGRVTMTRNTSISTAYMELSSLRSEDTAVYYCARDPYYYYYGMDVWGQGTTVTVSS
VL: QSVLTQPPSVSAAPGQKVTISCSGSSSNIENNHVSWYQQLPGTAPKLLIYDNNKRPSGIPDRFSGSKSGTSATLGITGLQTGDEADYYCETWDTSLSAGRVFGGGTKLTVLG
modifications: DVD-Ig inner
Take B3: the EC50 with IGF1 [3] was 381 nM; with IGF2 [4], 7340 nM; with IGF2 [5] it was 7340 nM; with IGF1 [6], 381 nM. The same molecule gave a Kd in the assay with IGF2 [7] below 0.0124 nM.

B4: DVD042 IGF1,2 arm (antibody, V domains shown)
VH: QVQLVQSGAEVKKPGASVKVSCKASGYTFTSYDINWVRQATGQGLEWMGWMNPNSGNTGYAQKFQGRVTMTRNTSISTAYMELSSLRSEDTAVYYCARDPYYYYYGMDVWGQGTTVTVSS
VL: QSVLTQPPSVSAAPGQKVTISCSGSSSNIENNHVSWYQQLPGTAPKLLIYDNNKRPSGIPDRFSGSKSGTSATLGITGLQTGDEADYYCETWDTSLSAGRVFGGGTKLTVLG
modifications: DVD-Ig outer
Turning to B4, the EC50 with IGF1 [3] came out at 2.5 nM; with IGF2 [4] it was 17.6 nM; with IGF2 [5], 17.6 nM; with IGF1 [6] it was 2.54 nM. In the assay with IGF2 [7], this molecule came in with a Kd of 0.000998 nM.

B5: DVD033 HGF arm (antibody, V domains shown)
VH: QVQLVESGGGLVKPGGSLRLSCAASGFTFSDYYMSWIRQAPGKGLEWVSYISSSGSTIYYADSVKGRFTISRDNAKNSLYLQMNSLRAEDTAVYYCARDEYNSGWYVLFDYWGQGTLVTVSS
VL: DIQMTQSPSSVSASVGDRVTITCRASQGISSWLAWYQQKPGKAPNLLIYEASSLQSGVPSRFGGSGSGTDFTLTISSLQPEDFATYYCQQANGFPWTFGQGTKVEIKR
modifications: DVD-Ig inner
Turning to B5, the IC50 in the assay with HGF [8] is 8.7 nM. For the same molecule, the EC50 in the assay with HGF [9] is 11.9 nM. In the assay with HGF [10], this molecule had a Kd of 0.31 nM.

B6: DVD026 HGF arm (antibody, V domains shown)
VH: QVQLVESGGGLVKPGGSLRLSCAASGFTFSDYYMSWIRQAPGKGLEWVSYISSSGSTIYYADSVKGRFTISRDNAKNSLYLQMNSLRAEDTAVYYCARDEYNSGWYVLFDYWGQGTLVTVSS
VL: DIQMTQSPSSVSASVGDRVTITCRASQGISSWLAWYQQKPGKAPNLLIYEASSLQSGVPSRFGGSGSGTDFTLTISSLQPEDFATYYCQQANGFPWTFGQGTKVEIKR
modifications: DVD-Ig outer
B6: the response in the assay with HGF [9] was half-maximal at 0.33 nM (EC50). In addition, the dissociation constant Kd with HGF [10] was 0.0159 nM.

B7: DVD025 HGF arm (antibody, V domains shown)
VH: QVQLVESGGGLVKPGGSLRLSCAASGFTFSDYYMSWIRQAPGKGLEWVSYISSSGSTIYYADSVKGRFTISRDNAKNSLYLQMNSLRAEDTAVYYCARDEYNSGWYVLFDYWGQGTLVTVSS
VL: DIQMTQSPSSVSASVGDRVTITCRASQGISSWLAWYQQKPGKAPNLLIYEASSLQSGVPSRFGGSGSGTDFTLTISSLQPEDFATYYCQQANGFPWTFGQGTKVEIKR
modifications: DVD-Ig inner
On to B7, for which, in the assay with HGF [8], the IC50 is above 100 nM. This molecule also yielded an EC50 in the assay with HGF [9] of 251 nM. In the assay with HGF [10], this molecule gave a Kd of 0.746 nM.

B8: AB012 (antibody, V domains shown)
VH: QVQLVESGGGLVKPGGSLRLSCAASGFTFSDYYMSWIRQAPGKGLEWVSYISSSGSTIYYADSVKGRFTISRDNAKNSLYLQMNSLRAEDTAVYYCARDEYNSGWYVLFDYWGQGTLVTVSS
VL: DIQMTQSPSSVSASVGDRVTITCRASQGISSWLAWYQQKPGKAPNLLIYEASSLQSGVPSRFGGSGSGTDFTLTISSLQPEDFATYYCQQANGFPWTFGQGTKVEIKR
Consider B8, for which, in the assay with HGF [8], the IC50 is 0.18 nM. In addition, the EC50 in the assay with HGF [9] is 0.19 nM and 0.22 nM. In the assay with HGF [10], this molecule showed a dissociation constant Kd below 0.0284 nM.

B9: DVD046 HGF arm (antibody, V domains shown)
VH: QVQLVESGGGLVKPGGSLRLSCAASGFTFSDYYMSWIRQAPGKGLEWVSYISSSGSTIYYADSVKGRFTISRDNAKNSLYLQMNSLRAEDTAVYYCARDEYNSGWYVLFDYWGQGTLVTVSS
VL: DIQMTQSPSSVSASVGDRVTITCRASQGISSWLAWYQQKPGKAPNLLIYEASSLQSGVPSRFGGSGSGTDFTLTISSLQPEDFATYYCQQANGFPWTFGQGTKVEIKR
modifications: DVD-Ig outer
B9 came in with an EC50 with HGF [9] of 0.5 nM. For the same molecule, the Kd with HGF [10] was below 0.0236 nM.

B10: DVD034 HGF arm (antibody, V domains shown)
VH: QVQLVESGGGLVKPGGSLRLSCAASGFTFSDYYMSWIRQAPGKGLEWVSYISSSGSTIYYADSVKGRFTISRDNAKNSLYLQMNSLRAEDTAVYYCARDEYNSGWYVLFDYWGQGTLVTVSS
VL: DIQMTQSPSSVSASVGDRVTITCRASQGISSWLAWYQQKPGKAPNLLIYEASSLQSGVPSRFGGSGSGTDFTLTISSLQPEDFATYYCQQANGFPWTFGQGTKVEIKR
modifications: DVD-Ig outer
As to B10, the concentration for half-maximal inhibition (IC50) with HGF [8] was determined as 0.34 nM. In addition, the EC50 in the assay with HGF [9] is 0.27 nM. The Kd with HGF [10] stood at 0.0215 nM.

B11: DVD479 VEGF arm (antibody, V domains shown)
VH: EVQLVESGGGLVQPGGSLRLSCAASGFTINASWIHWVRQAPGKGLEWVGAIYPYSGYTNYADSVKGRFTISADTSKNTAYLQMNSLRAEDTAVYYCARWGHSTSPWAMDYWGQGTLVTVSS
VL: DIQMTQSPSSLSASVGDRVTITCRASQVIRRSLAWYQQKPGKAPKLLIYAASNLASGVPSRFSGSGSGTDFTLTISSLQPEDFATYYCQQSNTSPLTFGQGTKVEIKR
As to B11, in the assay with VEGF, the midpoint of the response, the EC50, lay at 456 nM.

B12: AB047 (antibody, V domains shown)
VH: QVQLQQSGAELVKPGASVKISCKASGYTFTDYYINWVKLAPGQGLEWIGWIYPGSGNTKYNEKFKGKATLTIDTSSSTAYMQLSSLTSEDTAVYFCVRDSPFFDYWGQGTLLTVSS
VL: DIVLTQSPDSLAVSLGERVTMNCKSSQSLLNSGMRKSFLAWYQQKPGQSPKLLIYWASTRESGVPDRFTGSGSGTDFTLTISSVQAEDVAVYYCKQSYHLFTFGSGTKLEIKR
Turning to B12, a half-maximal response with PlGF [11] (EC50) required 0.2 nM. The Kd with PlGF [12] was 0.0285 nM and 0.0284 nM.

B13: DVD257 PlGF arm (antibody, V domains shown)
VH: QVQLQQSGAELVKPGASVKISCKASGYTFTDYYINWVKLAPGQGLEWIGWIYPGSGNTKYNEKFKGKATLTIDTSSSTAYMQLSSLTSEDTAVYFCVRDSPFFDYWGQGTLLTVSS
VL: DIVLTQSPDSLAVSLGERVTMNCKSSQSLLNSGMRKSFLAWYQQKPGQSPKLLIYWASTRESGVPDRFTGSGSGTDFTLTISSVQAEDVAVYYCKQSYHLFTFGSGTKLEIKR
modifications: DVD-Ig inner
B13 returned an EC50 with PlGF [11] of 2 nM. In the assay with PlGF [12], this molecule returned a Kd of 0.367 nM.

B14: DVD260 PlGF arm (antibody, V domains shown)
VH: QVQLQQSGAELVKPGASVKISCKASGYTFTDYYINWVKLAPGQGLEWIGWIYPGSGNTKYNEKFKGKATLTIDTSSSTAYMQLSSLTSEDTAVYFCVRDSPFFDYWGQGTLLTVSS
VL: DIVLTQSPDSLAVSLGERVTMNCKSSQSLLNSGMRKSFLAWYQQKPGQSPKLLIYWASTRESGVPDRFTGSGSGTDFTLTISSVQAEDVAVYYCKQSYHLFTFGSGTKLEIKR
modifications: DVD-Ig outer
Regarding B14, the EC50 with PlGF [11] came out at 0.12 nM. Also, the Kd with PlGF [12] amounted to 0.012 nM.

B15: DVD259 PlGF arm (antibody, V domains shown)
VH: QVQLQQSGAELVKPGASVKISCKASGYTFTDYYINWVKLAPGQGLEWIGWIYPGSGNTKYNEKFKGKATLTIDTSSSTAYMQLSSLTSEDTAVYFCVRDSPFFDYWGQGTLLTVSS
VL: DIVLTQSPDSLAVSLGERVTMNCKSSQSLLNSGMRKSFLAWYQQKPGQSPKLLIYWASTRESGVPDRFTGSGSGTDFTLTISSVQAEDVAVYYCKQSYHLFTFGSGTKLEIKR
modifications: DVD-Ig inner
Molecule B15 had an EC50 with PlGF [11] of 1.3 nM. In the assay with PlGF [12], this molecule came in with a dissociation constant Kd of 0.33 nM.

B16: DVD258 PlGF arm (antibody, V domains shown)
VH: QVQLQQSGAELVKPGASVKISCKASGYTFTDYYINWVKLAPGQGLEWIGWIYPGSGNTKYNEKFKGKATLTIDTSSSTAYMQLSSLTSEDTAVYFCVRDSPFFDYWGQGTLLTVSS
VL: DIVLTQSPDSLAVSLGERVTMNCKSSQSLLNSGMRKSFLAWYQQKPGQSPKLLIYWASTRESGVPDRFTGSGSGTDFTLTISSVQAEDVAVYYCKQSYHLFTFGSGTKLEIKR
modifications: DVD-Ig outer
As for B16, in the assay with PlGF [11], the EC50 was 0.08 nM. In addition, the Kd with PlGF [12] is below 0.254 nM.

By EC50 is commonly meant the concentration needed to bring the measured effect to its halfway point. Read a high EC50 as lower potency in that assay. Usually IC50 stands for the concentration that inhibits the measured activity by half. Lower therefore signals inhibition by little substance. For orientation: Kd means the concentration at which binding is half-saturated.

Source of the values: US9029508 (dated 2015).
